Assay results: patent publication US20240122985A1, “ANTIBODIES, COMBINATIONS COMPRISING ANTIBODIES, BIOMARKERS, USES & METHODS” (KYMAB LIMITED, priority 2016, published 2024)

T1: CHO-S expressed hOX40L (Homo sapiens, UniProt P23510)
T1 construct: CHO-S cells (optionally transfected with full length human OX40L); expressed in transfected cells
T1 sequence (P23510 1-183): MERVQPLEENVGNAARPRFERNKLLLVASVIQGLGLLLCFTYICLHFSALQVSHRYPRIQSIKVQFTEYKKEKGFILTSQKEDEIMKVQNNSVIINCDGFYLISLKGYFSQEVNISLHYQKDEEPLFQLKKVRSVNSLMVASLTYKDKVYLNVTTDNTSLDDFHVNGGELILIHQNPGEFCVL


Tests used:
[1] = tested on: Rhesus Macaque Graft versus Host Disease (GvHD) model; conditions: Example 9, post-HSCT prophylaxis, Rhesus macaque (FIG. 7)
Description: The effectiveness of antibody 2D10 IgG4PE as a monotherapy prophylactic for the prevention of GvHD was examined in a Rhesus Macaque model of haploidentical hematopoietic stem cell transplantation (HSCT).
All transplants were between half-sibling pairs that are mismatched at one MHC haplotype (“haploidentical-HCTs”). Recipient animals had irradiation based pre-myeloablative pre-transplant conditioning using a linear accelerator. Dose rate: 7cGy/min. Dose 1020 cGy given in 4 fractions. The leukapheresis donor animal underwent GCSF mobilisation and underwent leukapheresis using a Spectra Optia apheresis machine.
2D10 IgG4PE was dosed at 10 mg/kg i.v. according to a planned dosing schedule to take place on Day −2, Day+5, Day+12, Day+19, Day+26, Day+33, Day+40, Day+47 post-transplant.
Samples were taken during the course of the study to monitor donor chimerism (Table 4) and white blood cell counts. The primary end point was based on survival, with a survival to 15 days deemed to be a sign of successful prophylactic therapy (and compared to the documented survival of 6-8 days with no prophylaxis; Miller et al. 2010, supra). Though full pathology and histology with GvHD grading scores, markers of T-cell proliferation and activation (such as Ki-67 and granzyme B) and gene array analysis are planned, they were not available for inclusion at the time of drafting.
Scoring of clinical symptoms was based on observational assessments and clinical chemistry, classified according to the criteria set out in Table 5.
A further rhesus macaque GvHD study was conducted to determine the effect of combined post-HSCT prophylaxis with 2D10 IgG4PE and rapamycin. The study was performed as described in Example 7, with dosing as follows: 2D10 IgG4PE was administered i.v. at 10 mg/kg on Day −2, Day +5, Day+12, Day+19, Day+26, Day+33, Day+40, Day+47 and Day+56 post-transplant. Rapamycin was administered at a loading dose of 0.1 mg/kg i.m. on Day −14, followed by daily i.m. maintenance doses of 0.025 mg/kg until the scheduled termination of the study at Day+100. Rapamycin dosing was adjusted to maintain serum trough levels within the range 5-15 ng/mL.
This was a cohort study in NHP designed to determine the clinical, immunologic and molecular outcomes of OX40L blockade during allogeneic HCT. Two cohorts of transplant recipients were studied: (1) Allogeneic transplants using the OX40L-blocking human IgG4-PE antibody 1D05 (described as ‘KY1005’ in this Example 11) as monotherapy for GVHD prophylaxis (abbreviated as ‘KY1005’; n=4). KY1005 was given at a dose of 10 mg/kg starting on Days −2 and then once weekly until discontinuation on Days 54 (FIG. 8E). […] (2) Allogeneic transplants using KY1005 in combination with Sirolimus (Rapamycin) ([…]) for GVHD prophylaxis (abbreviated as ‘KY1005/Siro’; n=5). KY1005 was given at a dose of 10 mg/kg starting on Days −2 and then once weekly until discontinuation on Days 54 (FIG. 8P). […] These two OX40L-blockade groups were compared to the following cohorts, aspects of which have been described previously (Furlan et al., 2015; Furlan et al., 2016; Miller et al., 2010) (1) Autologous transplants (abbreviated as ‘Auto’, n=6 for clinical and flow cytometric data and n=4 for transcriptomic analysis) (2); Allogeneic transplants with no GVHD prophylaxis (abbreviated as‘No Rx’, n=11 for clinical and flow cytometric data and n=4 for transcriptomic analysis). (3) Allogeneic transplants using Sirolimus monotherapy for GVHD prophylaxis (LC laboratories, abbreviated as ‘Siro’, n=11 for flow cytometric analysis, n=4 for transcriptomic analysis).

CHO-S expressed hOX40L = biological target: T1, CHO-S expressed hOX40L; assay: Binding to CHO-S expressed hOX40L and receptor neutralisation (FACS); format: cell-based
Experimental: CHO-S cells expressing hOX40L or untransfected CHO-S cells, diluted in FACS buffer (PBS+1% w/v BSA+0.1% w/v NaN3) were distributed to a 96 well V-bottom plate (Greiner) at a density of 1×10^5 cells per well. Cells were washed with 150 μL of PBS and centrifuged at 300×g for 3 min. Supernatant was aspirated and 150 μL of PBS added. This wash step was repeated.
25 μL of hybridoma supernatant or purified antibody from hybridoma supernatant diluted in FACS buffer was added to the washed cells and incubated for 10-15 minutes. Reference Antibody or mouse IgG1 control antibody (Sigma) were diluted in FACS buffer to 20 μg/mL and 25 μL added to cells. 25 μL of human OX40R Fc (in-house) diluted to 1000 ng/mL in FACS buffer were then added to wells. Cells were incubated at 4° C. for 30 minutes.
To detect antibody and receptor binding, 50 μL of Goat anti-human IgG-PE (Jackson ImmunoResearch) and APC anti-mouse IgG (Jackson ImmunoResearch) diluted 1 in 500 in FACS buffer was added to the cells. Cells were incubated 30 minutes at 4° C. in the dark.
To fix cells 100 μL 2% v/v paraformaldehyde was added and cells incubated for 30 minutes at 4° C., cells were pelleted by centrifugation 300×g and the plates and resuspended in 50 μL of FACS buffer. PE and APC signal intensity (geomean) was measured by flow cytometry using a BD FACS Array instrument.
% of control binding was calculated using geomean fluorescence as described in equation 1 where total binding was defined as reference antibody at 10 μg/mL and non-specific binding as mouse IgG1 antibody at 10 μg/mL. % receptor binding was calculated using Equation 3.

recombinant hOX40L = biological target: T2, recombinant hOX40L (Homo sapiens, UniProt P23510); assay: Surface plasmon resonance, apparent affinity to human OX40L; format: binding; conditions: SPR, 25° C.; CNROR = Cannot resolve off-rate
T2 construct: cDNA encoding the extracellular domain of human OX40L was cloned into a pREP4 expression plasmid; isoleucine zipper (N); made in house; host or cells: FreeStyle CHO-S (transient)
Experimental: (§1) SPR analysis was carried out using the ProteOn™ XPR36 Array System (BioRad). Anti-mouse IgG (GE Healthcare BR-1008-38) was immobilised on a GLM biosensor surface using amine coupling, the surface was then blocked using 1 M ethanolamine. Test antibodies were captured on this surface and recombinant hOX40L (human and rhesus) were used at a single concentration of 256 nM, binding sensorgrams were double referenced using a buffer injection (i.e. 0 nM) to remove baseline drift and injection artefacts. Apparent affinities for the OX40L-antibody interaction were determined using the 1:1 model inherent to the ProteOn XPR36 analysis software. The assay was run using HBS-EP (Teknova) as running buffer and carried out at 25° C.

Rhesus monkey OX40L = assay: Surface plasmon resonance, apparent affinity to rhesus OX40L; format: binding, Rhesus (Macaca mulatta); conditions: SPR, 25° C.; CNROR = Cannot resolve off-rate
Experimental: as §1

T2 sequence (P23510 with tags, fused parts or gaps): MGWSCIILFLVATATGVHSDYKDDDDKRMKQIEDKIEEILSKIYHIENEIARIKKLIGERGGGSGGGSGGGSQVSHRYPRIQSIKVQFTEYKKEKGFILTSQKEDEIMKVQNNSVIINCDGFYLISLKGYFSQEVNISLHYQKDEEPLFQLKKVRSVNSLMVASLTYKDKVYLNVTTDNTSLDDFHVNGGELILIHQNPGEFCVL
Rhesus monkey OX40L, sequence (as listed by the source): as the sequence (P23510 with tags, fused parts or gaps) above, with R77Q, K95E counted along it

Molecule	median survival time, MST [1] [days]	FACS Binding (CHO-S expressed hOX40L)	Apparent Affinity hOX40L (nM) (recombinant hOX40L)	Apparent Affinity RhsOX40L (nM) (Rhesus monkey OX40L)
CO[C@H]1C[C@@H]2CC[C@@H](C)[C@@](O)(O2)C(=O)C(=O)N2CCCC[C@H]2C(=O)O[C@H]([C@H](C)C[C@@H]2CC[C@@H](O)[C@H](OC)C2)CC(=O)[C@H](C)/C=C(\C)[C@@H](O)[C@@H](OC)C(=O)[C@H](C)C[C@H](C)/C=C/C=C/C=C/1C [rapamycin, rapamycin (sirolimus), reference compound]	17			
9H04 (hybridoma): anti-OX40L antibody from hybridoma; VH Seq ID No:66, VL Seq ID No:80 (antibody, V domains shown, 09H04 - VH Amino Acid Sequence; 09H04 - VL Amino Acid Sequence) VH: QVQLVESGGGLVKPGGSLRLSCAASRFTLSDYYMTWIRQAPGKGLEWVSYISSSGNTIYYADSVKGRFTISRDNAKNSLYLQMNSLRAEDTAVYYCARDLSGSYWDYYYGMDVWGQGTTVTVSS VL: AIQLTQSPSSLSTSVGDRVTIACRASQGINNALAWYQQKPGKAPKLLIYDASSLESGVPSRFSGSGSGTDFTLTISSLQPEDFATYYCQQFNSYPRTFGQGTKVEIK		YES		
10A07 (hybridoma): murine/human chimeric anti-OX40L antibody purified from hybridoma supernatant (antibody, V domains shown) VH: EVQLVESGGVLVQPGGSLRLSCAASGFTFSSYIMTWVRQAPGKGLEWVSGISGSGGGTYYADSMKGRFTISRDNSKNTLYLQMNSLRVEDTAVYYCAKDRLGPITLVRGGYYYGMDVWGQGTTVTVSS VL: DIQMTQSPSSLSASVGDRVTITCRASQSISDYLNWYQQKPGKAPKFLIYAASSLQSGVPSRFSGSGSGTDFTLTVSSLQPEDFATYYCQQSYSTPRTFGQGTRVEIK		YES	CNROR	CNROR
10A07 (human): fully human anti-human OX40L monoclonal antibody; VH Seq ID No:2, VL Seq ID No:16 (antibody, V domains shown, 10A07 - VH Amino Acid Sequence; 10A07 - VL Amino Acid Sequence) VH: EVQLVESGGVLVQPGGSLRLSCAASGFTFSSYIMTWVRQAPGKGLEWVSGISGSGGGTYYADSMKGRFTISRDNSKNTLYLQMNSLRVEDTAVYYCAKDRLGPITLVRGGYYYGMDVWGQGTTVTVSS VL: DIQMTQSPSSLSASVGDRVTITCRASQSISDYLNWYQQKPGKAPKFLIYAASSLQSGVPSRFSGSGSGTDFTLTVSSLQPEDFATYYCQQSYSTPRTFGQGTRVEIK			CNROR	CNROR
2D10 (hybridoma): murine/human chimeric anti-OX40L antibody purified from hybridoma supernatant (antibody, V domains shown) VH: EVQLVESGGGLVQPGGSLRLSCAASGFTFSNYAMNWVRQAPGKGLEWVSTISGSGGATRYADSVKGRFTISRDNSRNTVYLQMNSLRVEDTAVFYCTKDRLIMATVRGPYYYGMDVWGQGTTVTVSS VL: DIQMTQSPSSLSASVGDRVTITCRASQSISSYLNWYQQKPGKAPNLLIYAASSLQSGVPSRFSGSGSETDFTLTISSLQPEDFATYYCQQSHSVSFTFGPGTKVDIK		YES	CNROR	CNROR
